# Assay results published in IntAct's records for PubMed 18615013.
# B1: Aurora kinase A (Homo sapiens), O14965 (parent)
# chain: MDRSKENCISGPVKATAPVGGPKRVLVTQQFPCQNPLPVNSGQAQRVLCPSNSSQRIPLQAQKLVSSHKPVQNQKQKQLQATSVPHPVSRPLNNTQKSKQPLPSAPENNPEEELASKQKNEESKKRQWALEDFEIGRPLGKGKFGNVYLAREKQSKFILALKVLFKAQLEKAGVEHQLRREVEIQSHLRHPNILRLYGYFHDATRVYLILEYAPLGTVYRELQKLSKFDEQRTATYITELANALSYCHSKRVIHRDIKPENLLLGSAGELKIADFGWSVHAPSSRRTTLCGTLDYLPPEMIEGRMHDEKVDLWSLGVLCYEFLVGKPPFEANTYQETYKRISRVEFTFPDFVTEGARDLISRLLKHNPSQRPMLREVLEHPWITANSSKPSNCQNKESASKQS
# Variants of: B1
# Conditions: with plk1_human PLK1, P53350
# Sequence of plk1_human PLK1, P53350 (P53350 whole entry): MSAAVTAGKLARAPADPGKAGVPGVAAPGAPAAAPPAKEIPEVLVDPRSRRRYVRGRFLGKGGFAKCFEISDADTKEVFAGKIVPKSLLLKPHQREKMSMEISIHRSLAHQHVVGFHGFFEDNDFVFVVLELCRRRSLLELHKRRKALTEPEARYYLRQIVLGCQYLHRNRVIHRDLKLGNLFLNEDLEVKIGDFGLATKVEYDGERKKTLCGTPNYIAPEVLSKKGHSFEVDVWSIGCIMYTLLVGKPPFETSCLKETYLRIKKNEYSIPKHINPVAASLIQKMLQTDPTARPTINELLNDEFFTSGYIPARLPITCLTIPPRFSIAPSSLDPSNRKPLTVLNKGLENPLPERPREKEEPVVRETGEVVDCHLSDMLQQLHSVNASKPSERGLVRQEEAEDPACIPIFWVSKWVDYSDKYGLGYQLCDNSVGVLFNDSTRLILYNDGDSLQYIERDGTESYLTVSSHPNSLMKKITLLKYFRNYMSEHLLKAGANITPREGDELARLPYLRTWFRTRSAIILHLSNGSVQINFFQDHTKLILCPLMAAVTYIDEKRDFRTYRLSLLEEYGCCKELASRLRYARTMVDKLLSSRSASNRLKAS
row,Variant,effect of a mutation on the interaction
1,K162R,disrupting interaction
